Test results: the supplement of paper PMC9170038

Test system: MS2 coat protein
Assay: apparent KD of MS2 coat protein; designed switch direction (-1 OFF switch, 1 ON switch): -1; higher = weaker reporter binding
How it was run: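 Normalised cluster fluorescence was curve-fitted, and each design's median over clusters is its apparent KD. Before this, SNAP-549-labelled MS2 coat protein was titrated from 0.7 or 1.5 nM, doubling to 3 µM, over RNA switches transcribed on Illumina chips by stalled E. coli RNA polymerase. Titrations had no input, 200 uM small-molecule ligand, or an oligonucleotide input, and steps lasted 0.8–1.5 h (lowest) to 10–20 min (highest).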

[1] = input ligand: microRNA oligo, concentration not stated
[2] = Eterna round: R95, input ligand: FMN 200 uM
[3] = Eterna round: R95, input ligand: microRNA oligo, concentration not stated
[4] = Eterna round: R95, input ligand: none

Sequence | apparent KD of MS2 coat protein (input ligand: FMN 200 uM) | apparent KD of MS2 coat protein [1] | apparent KD of MS2 coat protein (input ligand: none) | apparent KD of MS2 coat protein [2] | apparent KD of MS2 coat protein [3] | apparent KD of MS2 coat protein [4]
GCUUAACAUGUAGGAUAUGCGUGGCGAAGCUAUGCAGAAGGACAUGAGGAUCACCCAUGUUUUAGCGUCUGCGUACAGAUGCGU [JL ENG1 1.42] (Eterna round: R96, puzzle: Exclusion NG 1) | 178 nM | 19.8 nM | 22.4 nM |  |  | 
CCCGUCGAUGUAGGAUAUGCCCGGGUCUCCCGGGCAGAAGGACAUGAGGAUCACCCAUGUUCAUGAGCAUCAGCCAUGAAUGGG [Double but mutated MS2] (Eterna round: R96, puzzle: Exclusion NG 1) | 12.8 nM | 12.7 nM | 20.2 nM |  |  | 
AUAGAUCGUUAGGAUAUCCAGAUGACCCUCGUUGGAGAAGGAACGACAUGAGGAUCACCCAUGUUAUAGUACUU [Eternabot (L2) Solution 66] (Eterna round: R97, puzzle: Exclusion 6) | 16.9 nM |  | 18.5 nM |  |  | 
AGUAACUAUCACGAAAGUGAUAGUUACAAUAGCAAGUGAACAUGAGGAUCACCCAUGUCCUCGUUUGCUCGUCUUAU [Sensor 3 - 21] (puzzle: Sensor v3, turn-off variant 2) |  |  |  | 134 nM | 418 nM | 136 nM
UUUUAACAUGAGGAUCACCCAUGUGAGGAUAUCGAAAUUUAUAUUAAUAUUUAUUUAUCGAGAAGGCACAUUUU [JMF 64] (puzzle: Exclusion 1) |  |  |  |  | 120 nM | 
ACCUCACAUGAGGAUCACCCAUGUCAGGAUAUAAAAGGAGGGCGAGGCAGCCAGGAAGUUAGAAGGGACACGCU [EX1 B.11] (Eterna round: R97, puzzle: Exclusion 1) | 21.2 nM |  | 23.7 nM |  |  | 
CUCAUGCCUGAGGAUAUGCUGUACAAAAGUACUGCAGAAGGUAGAACAUGAGGAUCACCCAUGUGGCGAAAGCC [Omei Ex G3] (Eterna round: R97, puzzle: Exclusion 6) | 171 nM |  | 45.8 nM |  |  | 
CGGAGCAGAGGGAGAUCCAACAUGAGGAUCACCCAUGUCUCACAAGCUUUUUGCUCGUCUUAUUGUACCUUGGUACU [JL ViennaUCT Edcesobi mod 8] (puzzle: Sensor v3, turn-off variant 1) |  |  |  | 155 nM | 9.75 nM | 54.6 nM
AAACCUAUAGGAUAUACAUGAGGAUCACCCAUGUUGCGAUUUUUUAGGUAACAGAUCCGUAGAAGGGUAGGUUA [Anzaoror] (puzzle: Exclusion 3) |  |  |  |  | 24.4 nM | 
UGAAGUAGAGGAUAUACGUGGAAAUAGAUUCAUGUAUAUCUACAUGAGGAUCACCCAUGUAGAAGGCUAUAGAU [JR_Ex2_Sub073] (Eterna round: R97, puzzle: Exclusion 2) | 22.8 nM |  | 22.4 nM |  |  | 
CUUUUGUUAGGAUAUUAGUAGUAAAUAAAUAAAAUUACUACUGAGAAGGCACAUGAGGAUCACCCAUGUUCCUC [salish99_ex4_r3_045] (puzzle: Exclusion 4) |  |  |  |  | 25.3 nM | 
GCCCGUGGGCAAGGAUAUCCUACGCUGUUCUGGUUCGUGUCUGUCACAUGAGGAUCACCCAUGUGGGAGAAGGUGCACUAGGGU [Design 53] (Eterna round: R96, puzzle: Exclusion NG 2) | 19.7 nM | 11.1 nM | 16.9 nM |  |  | 
UUUUAAUAUGAAGGAUAUACUUAACAUGAGGAUCACCCAUGUGGUGUUGUGAGUGAGUGAGUUUAGUAGAAGGUCAAGUAUUUU [JMF's solution 47] (Eterna round: R96, puzzle: Exclusion NG 2) | 703 nM | 559 nM | 428 nM |  |  | 
GCGAGGUUAGGAUAUGCUGGCGUGGACUUGAGGAUCACCCAAGUGACUGCGGGCUAGGGCGCAGAAGGGACAAAAU [Usti] (Eterna round: R97, puzzle: Exclusion 5) | 45.1 nM |  | 45.6 nM |  |  | 
CUCCCUUCAGGAUAUACAUGAGGAUCACCCAUGUGUUCCAGCUAGGAAACUAGCAAAUGUAGAAGGGAAGGGAG [Mat - Exclusion 3 - JL Mod - D4] (Eterna round: R97, puzzle: Exclusion 3) | 183 nM |  | 90 nM |  |  | 
UAUAACCGAGGAUAUACAUGAGGAUCACCCAUGUAAUGUAGUAUAAUGUAUGUAAGAUGUAGAAGGUGGGAUGU (Eterna round: R97, puzzle: Exclusion 3) | 56.2 nM |  | 45.2 nM |  |  | 
GGCCCUAAGGUCAGAUUCACAAGCUUUUUGCUCGUUUUAACAUGAGGAUCACCCAUGUCUAGUGGAUCUGAUCCUCA [Sensor v3, turn-off variant 2 (MOD of Indiso v.2)] (puzzle: Sensor v3, turn-off variant 2) |  |  |  | 21.6 nM | 11.8 nM | 20.1 nM

Sequence | apparent KD of MS2 coat protein (input ligand: FMN 200 uM) | apparent KD of MS2 coat protein [1] | apparent KD of MS2 coat protein (input ligand: none) | apparent KD of MS2 coat protein [2] | apparent KD of MS2 coat protein [3] | apparent KD of MS2 coat protein [4]
AAUUCCAAGCUCAACGUUCACAUGAGGAUCACCCAUGUCAUGAGCUGUUAUAAGUUCGGAUGUUAUAUUUUGCUCGU [Eternabot (L2) Solution 12] (Eterna round: R97, puzzle: Sensor, turn-off variant 1) | 14.6 nM |  | 15 nM |  |  | 
CCUAAAUCCUAGGAUAUGCUAGACGAAAGUCUAGCAGAAGGAGGAACAUGAGGAUCACCCAUGUGUCCUAUAGG [Mat - Exclusion 6 - Eli Mod - D31] (Eterna round: R97, puzzle: Exclusion 6) | 20.6 nM |  | 16.5 nM |  |  | 
AAGUGUGCCUAGGAUAUGUUCGGCCAAGGUCAUACAGAAGGAGGCACAUGAGGAUCACCCAUGUAGUGUCCAAC [Orririvebe] (puzzle: Exclusion 6) |  |  |  |  | 88.1 nM | 
GUCAGGUAUCGAGGAUAUGUGAAAGGAAGUGUAACAGAAGGCGAGGGCUUGACAUGAGGAUCACCCAUGUGAAGUGAUUCGAAG [PowerStrip EXNG 1.22] (Eterna round: R96, puzzle: Exclusion NG 1) | 51.8 nM | 52.5 nM | 62.9 nM |  |  | 
GUCGAUGUCAAAGGAUAUCAGCACGUGUAGUGCUGAGAAGGUUGAACAUGAGGAUCACCCAUGUAGAUCAUUAACGACUUAAUU [ENG1/10-A3] (Eterna round: R96, puzzle: Exclusion NG 1) | 56.1 nM | 20.3 nM | 22.9 nM |  |  | 
GCGCACCUACCAAAAGGUAGGUCCACAUGAGGAUCACCCAUGUAGGAUAUCGAUUGCUUUGCAGUCGAGAAGGACGUGAUGCGC [JL ENG3 3.80 Mod 16] (Eterna round: R96, puzzle: Exclusion NG 3) | 51.6 nM | 27.3 nM | 32.3 nM |  |  | 
GAUCAUGCAGGAUAUACAUGGAACAUGUAAUCAUGAAUUUCACAUGAGGAUCACCCAUGUAGAAGGGCAUGAUC [Omei Ex2 A14] (Eterna round: R97, puzzle: Exclusion 2) | 151 nM |  | 2740 nM |  |  | 
GCGAGAUGAGGAUAUUAGUGGAAUGACAUGAGGAUCACCCAUGUUACGCAUGUCGAGCUUUGAGAAGGCAUUACGA [Eternabot (L2) Solution 75] (Eterna round: R97, puzzle: Exclusion 5) | 26.2 nM |  | 31.3 nM |  |  | 
UUAGAGUAAUAGGAUAUGCUACGUCACGGCUGUGCAGAAGGAUUAACAUGAGGAUCACCCAUGUGGUGAGUCCU [Eternabot (L1) Solution 31] (Eterna round: R97, puzzle: Exclusion 6) | 242 nM |  | 985 nM |  |  | 
GUUAGUAUCUAGGAUAUCUAGUACAUAGUAUCUAGAGAAGGAGAUACAUGAGGAUCACCCAUGUUCUGUGAUCU [Exclusion 6 - 2:c] (puzzle: Exclusion 6) |  |  |  | 53 nM | 205 nM | 234 nM
GGGAAACAUGAGGAUCACCCAUGUCAGGAUAUGAUACUAUGUACUUCGGUACAUAGUAUCAGAAGGGACAUCAU [Ex1-3: 13] (puzzle: Exclusion 1) |  |  |  |  | 79.2 nM | 
AGUACUAACACGGUAGUGUUAGUACAAUAAGCUUGUGAAACAUGAGGAUCACCCAUGUCCUCAUAAGCUCGUCUUAU [salish99_TOv2_r3_057] (puzzle: Sensor v3, turn-off variant 2) |  |  |  | 17.6 nM | 370 nM | 15.3 nM
UUUUUGUCAGGAUAUGAGUCGUAGAACAAUAGUACUACGUCUCAGAAGGGACAUGAGGAUCACCCAUGUGCCUC [Fiskers Ex 4 Super Stable 44 mod 28] (puzzle: Exclusion 4) |  |  |  |  | 26.2 nM | 
CAGCACUCAGGAUAUACAUGAGGAUCACCCAUGUGUGAACAAGUGAGUGAUUUCCCAUGUAGAAGGGAGAGAUU [Exclusion 3 S1] (Eterna round: R97, puzzle: Exclusion 3) | 183 nM |  | 98.2 nM |  |  | 
UUUAACAAGCCAGAUCCUCACAUGAGGAUCACCCAUGUGCUCGUCUGAUUUUGUACUAUCAUGUGAGUGAUAGUAUU [Level Boss var2-05] (Eterna round: R96, puzzle: Sensor v3, turn-off variant 1) | 360 nM | 39.1 nM | 300 nM |  |  | 
UUCUGGACAGGAUAUGUACUUGAGCACUUGAGGAUCACCCAAGUCGUCAAGUACUCAGGCACAGAAGGGUUAAUUU [jl-ex5.4.67 ViennaUCT mod] (Eterna round: R97, puzzle: Exclusion 5) | 30.7 nM |  | 15.3 nM |  |  | 
GUGUAGUCAGGAUAUACAUAGGAAGAGAAGAGAAGAGAAGUACAUGAGGAUCACCCAUGUAGAAGGGACAGUGU [Excluse me!! 6 - Jieux - Exclusion 2] (puzzle: Exclusion 2) |  |  |  |  | 21.7 nM | 
